The test has as its target calmodulin (CaM agarose beads) (UniProt P62157). The test is described as follows: pull-down with CaM-agarose beads, immunoblot (band quantification printed under the lanes). Particulars: parent: 100. In general terms: A western blot detects proteins with antibodies after separation by electrophoresis.

Take “PC1-p30, soluble polycystin-1 cytoplasmic tail L4137P”: the percent of parent was determined as 29. For “PC1-p30, soluble polycystin-1 cytoplasmic tail R4150C”, the percent of parent was determined as 116.

Source of the values: paper PMC4999191.
